The values below come from article PMC4355975, “PAT1 inversely regulates the surface Amyloid Precursor Protein level in mouse primary neurons” (BMC Neuroscience, 2015).

For experiment [1], the target named is T1, Amyloid Precursor Protein (APP) (mouse (endogenous in primary cortical …, UniProt P12023 18-770)).
T1 construct: Amyloid precursor protein, endogenous in mouse primary cortical neurons; precipitated with the anti-APP Cter polyclonal antibody, detected with anti-APP-Nter A4; In the cell surface co-IP the surface pool was labelled with sulfo-NHS-biotin; source: endogenous, mouse primary cortical neurons (E16, Swiss strain), in lysate
The experiment can be described thus: co-IP; after cell surface biotinylation of mouse primary cortical neurons at 6 DIV (Cell surface Co-IP); APP precipitated with anti-APP Cter polyclonal antibody; blots for APP and PAT1. As to conditions: partners not purified.

In experiment [2] the target is T1, Amyloid Precursor Protein (APP). Put plainly: co-IP; total extracts of mouse primary cortical neurons at 6 DIV; APP precipitated with anti-APP Cter polyclonal antibody and protein A Sepharose; IP buffer Hepes 10 mM, NaCl 150 mM, CaCl2 2 mM, 1% Triton X 100, 4°C; blots for APP and PAT1. As to conditions: partners not purified.

B1: PAT1 (Protein interacting with APP tail 1) (natural protein, UniProt Q9DAX9 1-585, looked up)
chain: MAAVELEWIPETLYNTAISAVVDNYIRSRRDIRSLPENIQFDVYYKLYQQGRLCQLGSEFCELEVFAKVLRALDKRHLLHHCFQALMDHGVKVASVLAYSFSRRCSYIAESDAAVKEKAIQVGFVLGGFLSDAGWYSDAEKVFLSCLQLCTLHDEMLHWFRAVECCVRLLHVRNGNCKYHLGEETFKLAQTYMDKLSKHGQQANRAALYGELCALLFAKSHYDEAYKWCVEAMKEITAGLPVKVVVDVLRQASKACVVKREFKKAEQLIKHAVYLARDHFGSKHPKYSDTLLDYGFYLLNVDNICQSVAIYQAALDIRQSVFGGKNIHVATAHEDLAYSSYVHQYSSGKFDNALFHAERAIGIITHILPEDHLLLASSKRVKALILEEIAIDCHNKETEQRLLQEAHDLHLSSLQLAKKAFGEFNVQTAKHYGNLGRLYQSMRKFKEAEEMHIKAIQIKEQLLGQEDYEVALSVGHLASLYNYDMNQYENAEKLYLRSIAIGKKLFGEGYSGLEYDYRGLIKLYNSIGNYEKVFEYHNVLSNWNRLRDRQYSVTDALEDVSSSPQSTEEVVQSFLMAQNVEGPSC
notes: PAT1 / APPBP2, endogenous in mouse primary cortical neurons; detected by blot with mAb26; also called Ara67; source: endogenous, mouse primary cortical neurons (E16, Swiss strain), in lysate
Regarding B1, the “ratio of APP to PAT1 in the immunoprecipitate (arbitrary units)” value in experiment [1] was 6 AU; in experiment [2], 2.7 AU.
